# ± gives the standard deviation of the averaged measurements.
# Tested on: ATP
# Assay: switch fluorescence ratio, 500 uM ATP over buffer (Cy3 cluster intensity, sum of 5 cycles each) (fold (ratio)); higher = stronger signal-on switching upon ATP binding; sequences stand for … in TCGTCGGCAGCGTCAGATGTGTATAAGAGACAGTTTTTTTTTTTTTTTTTTTTTTTTT…TC
# Conditions: aptamer strand: ATP DNA aptamer (quencher-CACCTGGGGGAGTATTGCGGAGGAAGG + anchor), 100 nM annealed; ATP concentration: 500 uM
# Method in brief: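 The quencher-labelled ATP aptamer, at 100 nM, was annealed to Cy3-labelled switching-strand clusters on a modified Illumina MiSeq flow-cell. The clusters were imaged in selection buffer, then after 15 min with 500 uM ATP at 22 °C, and this buffer/ATP cycle ran five times with NaOH stripping and re-annealing between runs. Per-cluster fluorescence ratios, summed target-cycle over summed buffer-cycle Cy3 intensity, were averaged per switch-domain sequence. Clusters outside 100-1000 RFU were excluded.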
# 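Also: ATP exposure 15 min at 22 °C before imaging.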
row,Sequence,switch fluorescence ratio
1,TTTGCGACTG,1.03 ± 0.015
2,TTTGCGGGAC,1.57 ± 0.47
3,TTTGCGGGGG,1.01 ± 0.035
4,TTTGCGGGGT,1.03 ± 0.034
5,TTTGCGTTAC,1.58 ± 0.053
6,TTTGCTACGT,1.01 ± 0.051
7,TTTGCTAG,1.013 ± 0.0095
8,TTTGCTATAG,1.23 ± 0.28
9,TTTGCTGTAT,0.9747 ± 0.0032
10,TTTGCTTAAT,1.02 ± 0.044
11,TTTGCTTTCT,1.02 ± 0.023
12,TTTGCTTTTC,0.994 ± 0.05
13,TTTGCTTTTT,1 ± 0.036
14,TTTGGAAAGG,0.977 ± 0.046
15,TTTGGAAAGT,0.991 ± 0.025
16,TTTGGAATCG,1.01 ± 0.046
17,TTTGGACAGG,1.004 ± 0.0071
18,TTTGGAGAAA,0.989 ± 0.022
19,TTTGGAGGCT,1.02 ± 0.063
20,TTTGGAGTTT,0.987 ± 0.053
21,TTTGGATATT,1.03 ± 0.095
22,TTTGGATCTG,1.034 ± 0.0094
23,TTTGGCAGTC,1.1 ± 0.13
24,TTTGGCCGGA,0.985 ± 0.036
25,TTTGGGAATA,1.02 ± 0.02

row,Sequence,switch fluorescence ratio
1,TTTGGGAATT,1.03 ± 0.035
2,TTTGGGACAG,0.981 ± 0.031
3,TTTGGGAGGC,1.01 ± 0.034
4,TTTGGGATT,0.999 ± 0.036
5,TTTGGGCATA,1.16 ± 0.19
6,TTTGGGCGCC,1 ± 0.018
7,TTTGGGCGCT,1.04 ± 0.048
8,TTTGGGCTGT,1.02 ± 0.021
9,TTTGGGGAGA,1 ± 0.041
10,TTTGGGGAGT,1 ± 0.088
11,TTTGGGGGCC,1.009 ± 0.0061
12,TTTGGGTAAG,1 ± 0.024
13,TTTGGGTCAA,1.012 ± 0.0074
14,TTTGGGTGTT,1.02 ± 0.046
15,TTTGGGTTAA,1.13 ± 0.29
16,TTTGGTAGAA,0.996 ± 0.025
17,TTTGGTCCGG,1.01 ± 0.029
18,TTTGGTCCTT,1.029 ± 0.0088
19,TTTGGTGCCC,1.03 ± 0.029
20,TTTGGTGCTT,0.974 ± 0.045
21,TTTGGTGTTT,1.01 ± 0.035
22,TTTGGTTATG,0.982 ± 0.017
23,TTTGGTTCTT,1.02 ± 0.033
24,TTTGGTTGGG,1.03 ± 0.098
25,TTTGGTTTTC,1.02 ± 0.033

row,Sequence,switch fluorescence ratio
1,TTTGTAAAGG,0.999 ± 0.013
2,TTTGTAACCT,1.74 ± 0.035
3,TTTGTAGAAC,1.02 ± 0.036
4,TTTGTAGAGT,1.01 ± 0.034
5,TTTGTAGGAT,1.04 ± 0.014
6,TTTGTAGTGT,0.999 ± 0.026
7,TTTGTATAGG,0.98 ± 0.035
8,TTTGTATGCA,1.04 ± 0.057
9,TTTGTCGATA,1.05 ± 0.025
10,TTTGTCGTAT,0.996 ± 0.014
11,TTTGTGATAA,0.969 ± 0.057
12,TTTGTGCGCA,1.07 ± 0.08
13,TTTGTGCTTT,1.01 ± 0.02
14,TTTGTGGGAT,0.998 ± 0.043
15,TTTGTGGTTC,1 ± 0.039
16,TTTGTGTATT,0.97768 ± 0.00065
17,TTTGTTAACG,0.99 ± 0.013
18,TTTGTTACGG,0.978 ± 0.046
19,TTTGTTCACA,1.06 ± 0.043
20,TTTGTTCATC,0.97 ± 0.024
21,TTTGTTCGTG,0.96 ± 0.028
22,TTTGTTGGGC,0.981 ± 0.028
23,TTTGTTTAAT,1.002 ± 0.0012
24,TTTGTTTAGG,1.01 ± 0.04
25,TTTGTTTGCG,1.03 ± 0.032

row,Sequence,switch fluorescence ratio
1,TTTGTTTGGT,0.985 ± 0.036
2,TTTTAAACTG,1.1 ± 0.066
3,TTTTAAAGAG,0.97 ± 0.024
4,TTTTAACAAT,1.021 ± 0.0098
5,TTTTAACCCT,0.998 ± 0.013
6,TTTTAACGCT,1.01 ± 0.039
7,TTTTAACTGG,0.988 ± 0.034
8,TTTTAAGAT,1.02 ± 0.029
9,TTTTAAGCTG,1.05 ± 0.024
10,TTTTAAGTTG,1.01 ± 0.045
11,TTTTAATCGT,0.985 ± 0.063
12,TTTTACAGAT,0.975 ± 0.017
13,TTTTACAGTT,1.02 ± 0.023
14,TTTTACCTTT,1 ± 0.032
15,TTTTACGAGT,1.06 ± 0.16
16,TTTTACGCCT,1.02 ± 0.012
17,TTTTACTAGA,1.032 ± 0.0059
18,TTTTACTGCT,1.15 ± 0.18
19,TTTTACTTGT,1.025 ± 0.0037
20,TTTTAGAATG,1 ± 0.061
21,TTTTAGGAAG,0.9937 ± 0.0097
22,TTTTAGGGAG,0.992 ± 0.03
23,TTTTAGGGCA,1 ± 0.018
24,TTTTAGGGCC,0.999 ± 0.05
25,TTTTAGGTCG,0.987 ± 0.013

row,Sequence,switch fluorescence ratio
1,TTTTAGTCGG,0.9883 ± 0.0092
2,TTTTAGTGGC,1.02 ± 0.029
3,TTTTAGTGGT,0.992 ± 0.014
4,TTTTAGTGTC,0.998 ± 0.072
5,TTTTAGTTTA,1.01 ± 0.031
6,TTTTAGTTTC,1.015 ± 0.0022
7,TTTTATAAGA,1.05 ± 0.075
8,TTTTATAAGT,1.03 ± 0.021
9,TTTTATAGGA,0.976 ± 0.006
10,TTTTATATAA,1.02 ± 0.039
11,TTTTATGCTA,1 ± 0.054
12,TTTTATGGGG,0.968 ± 0.031
13,TTTTATGTTT,1 ± 0.019
14,TTTTATTGCT,0.991 ± 0.036
15,TTTTATTGGA,1 ± 0.03
16,TTTTATTGGG,0.975 ± 0.031
17,TTTTATTTCA,0.991 ± 0.021
18,TTTTCAAAAT,1.08 ± 0.13
19,TTTTCAATGT,1.04 ± 0.048
20,TTTTCACCAA,1.03 ± 0.025
21,TTTTCAGGGG,1.03 ± 0.049
22,TTTTCATAAG,1 ± 0.011
23,TTTTCATCTG,1.03 ± 0.098
24,TTTTCCAAGA,1.09 ± 0.1
25,TTTTCCCGCA,2.02 ± 0.26

row,Sequence,switch fluorescence ratio
1,TTTTCCGCGG,1.062 ± 0.0077
2,TTTTCCTGAC,1.64 ± 0.25
3,TTTTCCTGGG,1.03 ± 0.063
4,TTTTCGCATT,1.23 ± 0.051
5,TTTTCGGAGT,1.01 ± 0.037
6,TTTTCGGGGT,0.986 ± 0.025
7,TTTTCGGGTG,1.05 ± 0.024
8,TTTTCGTATT,0.988 ± 0.012
9,TTTTCTCTTT,1.01 ± 0.035
10,TTTTCTTCTC,1.03 ± 0.028
11,TTTTGAAACG,0.995 ± 0.025
12,TTTTGAACGT,1.02 ± 0.043
13,TTTTGAATTT,0.996 ± 0.032
14,TTTTGACTTG,0.948 ± 0.0044
15,TTTTGACTTT,0.998 ± 0.023
16,TTTTGAGAAA,0.99 ± 0.028
17,TTTTGAGACG,1.09 ± 0.011
18,TTTTGAGGCA,1.02 ± 0.027
19,TTTTGATAAC,0.97 ± 0.036
20,TTTTGATGCG,0.982 ± 0.031
21,TTTTGATGTT,0.988 ± 0.031
22,TTTTGATTGC,1.03 ± 0.037
23,TTTTGCAGG,0.991 ± 0.05
24,TTTTGCCCCC,1.12 ± 0.14
25,TTTTGCTGTG,1.01 ± 0.025

row,Sequence,switch fluorescence ratio
1,TTTTGCTTTC,1.14 ± 0.1
2,TTTTGGAAAC,1.11 ± 0.17
3,TTTTGGACCC,1.01 ± 0.035
4,TTTTGGAGAG,1.01 ± 0.016
5,TTTTGGATAT,1.28 ± 0.42
6,TTTTGGCACG,0.988 ± 0.0014
7,TTTTGGCGAC,0.976 ± 0.027
8,TTTTGGCGTC,0.994 ± 0.023
9,TTTTGGCTTA,0.9945 ± 0.007
10,TTTTGGGAAC,1.02 ± 0.037
11,TTTTGGGACT,1.03 ± 0.019
12,TTTTGGGAGG,1 ± 0.054
13,TTTTGGGGTT,0.997 ± 0.043
14,TTTTGGGTCA,1.02 ± 0.018
15,TTTTGGTACC,1.02 ± 0.015
16,TTTTGGTCCT,1.07 ± 0.1
17,TTTTGGTGGA,0.988 ± 0.014
18,TTTTGGTTCC,1.01 ± 0.016
19,TTTTGGTTCG,0.987 ± 0.032
20,TTTTGGTTG,0.947 ± 0.045
21,TTTTGTAACG,1 ± 0.034
22,TTTTGTAAGA,1.03 ± 0.013
23,TTTTGTATTT,0.988 ± 0.035
24,TTTTGTCATT,1 ± 0.04
25,TTTTGTCCAT,0.992 ± 0.015

row,Sequence,switch fluorescence ratio
1,TTTTGTCGTG,0.95 ± 0.033
2,TTTTGTCTGC,0.98876 ± 0.00074
3,TTTTGTGAAG,0.963 ± 0.035
4,TTTTGTGAGA,1.026 ± 0.0075
5,TTTTGTGAGT,1.01 ± 0.04
6,TTTTGTGCTG,0.984 ± 0.052
7,TTTTGTGCTT,1.04 ± 0.074
8,TTTTGTGGCG,1.04 ± 0.033
9,TTTTGTGGCT,0.98 ± 0.02
10,TTTTGTGGTC,1.02 ± 0.017
11,TTTTGTGTGC,1.02 ± 0.022
12,TTTTGTTCTT,0.984 ± 0.012
13,TTTTGTTTGA,0.995 ± 0.01
14,TTTTTAAGAC,1.08 ± 0.086
15,TTTTTAATCG,1.01 ± 0.032
16,TTTTTAATCT,0.9902 ± 0.0083
17,TTTTTAATGA,1.02 ± 0.052
18,TTTTTACAAG,1.21 ± 0.3
19,TTTTTACTAT,1.002 ± 0.0057
20,TTTTTAGAAA,0.971 ± 0.011
21,TTTTTAGCCA,1.05 ± 0.024
22,TTTTTAGCCG,1.04 ± 0.075
23,TTTTTAGCGA,1.09 ± 0.058
24,TTTTTAGCTT,1.04 ± 0.028
25,TTTTTAGGGC,1.02 ± 0.059

# From the supplement of paper PMC10126150
